B1: PLAGL1 (parent)
chain: DPNKMAFGCEECGKKYNTMLGYKR
B2: CLCN6 (parent)
chain: FQSISLRKIQFNFPYFRSDRDKRD

Variants of: B1
Experiment: protein stability index of a GFP-peptide fusion (GPS, HEK-293T) (PSI 1-6); higher = more stable
Conditions: c terminus: a fixed tail appended
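Also: lentivirally expressed fusions sorted by FACS into six bins by GFP to DsRed ratio, PSI derived from sequencing read proportions per bin multiplied by bin number.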

Protein stability index of substitutions, site by site:
P2: C 2.28 | E 2.04 | D 2.54 | F 2.73 | A 2.26
D1: I 2.16 | P 2.08 | C 2.18 | L 2.34 | N 3.64 | R 1.8 | E 1.77 | S 2.05 | V 2.7 | A 1.94 | K 2.09 | T 2.13 | M 2.26 | Q 2.05 | H 2.05 | G 2.22

Variants of: B2
Experiment: as above
Conditions: c terminus: a fixed tail appended

Protein stability index of substitutions, site by site:
Q2: Y 1.33 | L 2.31 | G 1.54 | S 1.96 | F 1.53 | N 1.62 | D 2.46 | K 2.5 | R 1.91 | I 1.06 | V 5.36 | E 2.69 | C 1.9 | T 2.73 | A 2.17
F11: P 1.28 | G 1.41 | Q 1.25 | Y 1.61 | C 1.96 | M 1.65 | E 2.02 | R 1.51 | H 1.74 | L 2.54 | K 2.79 | S 1.56
L6: A 2.68 | S 1.66 | Q 2.13 | P 2.78 | E 2.08 | N 1.68 | C 1.53 | H 2.03 | T 2.59
K22: L 1.71 | W 2.09 | Q 1.68 | P 1.66 | A 1.29 | H 1.34 | Y 2.27 | S 2.72 | I 1.81 | C 3.83 | T 2.17 | D 1.92 | R 1.35 | M 1.82
R7: A 2.38 | Q 1.62 | L 1.37 | S 2.4 | P 3.68 | I 1.77 | T 1.78 | W 1.77 | E 2.56 | K 1.59 | H 2.02 | M 1.21 | N 1.97 | V 2.97 | C 1.81
F1: R 2.07 | T 2.77 | S 3.4 | Q 3.52
P14: L 1.24 | C 1.82 | Q 2.5 | N 1.81 | G 1.69 | F 1.69 | E 1.99 | H 1.67 | I 1.43
S3: A 1.4 | T 1.79 | N 1.82 | Q 1.66 | D 2.19 | P 2.29 | G 1.89 | H 1.46 | I 1.74 | W 2.4 | F 2.58 | R 1.38 | E 2.73 | L 1.08
R17: P 2.28 | S 1.5 | I 1.56 | C 1.11 | E 2.26 | F 1.52 | H 2.35 | K 1.76 | Y 1.22 | T 1.71 | N 2.21 | D 3.03 | M 1.93 | G 1.71 | V 2.15 | Q 2.02
S5: A 1.82 | F 2.62 | E 2.21 | H 1.74 | K 1.7 | P 1.82 | T 1.42 | I 1.4 | G 1.02 | N 1.82 | D 1.96 | Y 1.98 | R 1.77 | M 1.46 | Q 1.66
D24: A 1.68 | E 1.93 | S 2.23 | V 1.31 | T 2.21 | F 1.93 | M 1.66 | P 2 | C 2.75 | I 2.59 | R 1.94 | Y 1.58 | K 1.37 | L 2 | N 1.49 | Q 1.37 | H 2.1
I4: Y 1.42 | V 1.98 | E 1.91 | A 2.71 | T 2.21 | N 1.98 | S 1.74 | M 3 | D 2.05 | P 2.19 | G 2.02 | Q 1.9 | L 2.44
F16: L 1.44 | A 1.68 | C 1.52 | I 2.18 | H 2.3 | E 2.22 | T 1.9 | D 2.74 | P 1.47 | S 1.83 | W 2.08 | Q 2.39 | N 2.68
F13: K 1.8 | D 1.98 | M 2.29 | I 1.35 | S 1.59 | E 3.21 | A 1.84 | V 1.43 | P 1.75 | Y 2.49 | C 2.2 | Q 2.28
K8: S 1.31 | Q 2.12 | W 2.43 | T 1.44 | Y 2.09 | N 2.18 | C 1.75 | P 2.92 | R 1.74 | M 2.08 | E 2.63 | L 2.64 | H 2.92 | I 2.78
Q10: C 2.6 | Y 1 | A 1.56 | H 1.51 | P 1.74 | I 2.33 | L 1.67 | V 2.31 | F 1.52 | N 1.95 | K 1.67 | S 1.98 | D 2.04
D19: K 1.46 | S 1.33 | Q 1.85 | P 2.16 | L 1.47 | M 2.01 | I 2 | R 1.9 | A 1.67 | T 2.21 | F 1.68
R20: S 2.2 | N 1.72 | M 1.72 | C 1.23 | A 2.17 | W 3.61 | L 1.22 | K 1.43 | V 1.73 | Q 3.07 | H 1.72 | P 1.45 | T 1.25 | E 2.73
Y15: T 2.75 | H 2.78 | V 2.22 | S 2.58 | G 2.68 | Q 2.56 | N 2.78 | M 1.53 | P 2.41 | C 2.21 | K 2 | E 2.7 | I 2.15 | D 2.31 | W 1.44 | A 3.09 | F 1.48
N12: S 1.65 | M 1.54 | V 1.9 | R 2.59 | D 1.53 | I 2.06 | E 1.5 | A 1.09 | T 2.37 | K 2.04
R23: T 2.25 | I 1.69 | L 1.35 | G 2.85 | P 3.46 | F 2.01 | M 1.38 | V 1.88 | A 1.73 | E 1.86 | H 1.99 | C 1.67 | N 1.81 | Y 1.28 | Q 2.39 | D 1.72 | W 1.26 | S 1.29 | K 1.91
I9: C 1.98 | H 1.83 | E 1.98 | N 1.47 | G 1.44 | T 2.78 | D 1.72 | P 1.65 | S 2 | W 1.78 | L 1.62 | R 2.02 | Q 2.81
D21: F 3.21 | Y 1.22 | H 2.02 | P 2.61 | G 1.27 | V 2.94 | A 3.22 | S 3.06 | R 1.19 | E 1.1 | M 2.08 | C 2.4 | K 1.31
S18: N 2.62 | V 1.25 | P 1.6 | A 1.99 | T 2.31 | R 2.16 | M 1.38 | Y 2.35 | H 1.93 | Q 1.52 | D 1.71

— the supplement of paper PMC10567573
